Columns and labels:
Assay in all cases: cell-based or functional assay
RPS6KA6 (RSK4) = RPS6KA6 (RSK4) (UniProt Q9UK32 1-745, limits assumed)
SRPK2 = SRPK2 (UniProt P78362 1-688, limits assumed)
[1] = target: RAF1 (cRAF) Y340D Y341D c-Raf (UniProt P04049 306-648, limits assumed)
MST4 = MST4 (UniProt Q9P289 1-416, limits assumed)
MELK = MELK (UniProt Q14680 1-340, limits assumed)
[2] = target: MAPK14 (p38 alpha) Mitogen-activated protein kinase 14 (UniProt Q16539 1-360)
CSK = CSK (UniProt P41240 1-450, limits assumed)
NEK7 = NEK7 (UniProt Q8TDX7 1-302, limits assumed)
PRKG2 (PKG2) = target: T1, PRKG2 (PKG2) (UniProt Q13237 1-762, limits assumed)
T1 sequence (looked up): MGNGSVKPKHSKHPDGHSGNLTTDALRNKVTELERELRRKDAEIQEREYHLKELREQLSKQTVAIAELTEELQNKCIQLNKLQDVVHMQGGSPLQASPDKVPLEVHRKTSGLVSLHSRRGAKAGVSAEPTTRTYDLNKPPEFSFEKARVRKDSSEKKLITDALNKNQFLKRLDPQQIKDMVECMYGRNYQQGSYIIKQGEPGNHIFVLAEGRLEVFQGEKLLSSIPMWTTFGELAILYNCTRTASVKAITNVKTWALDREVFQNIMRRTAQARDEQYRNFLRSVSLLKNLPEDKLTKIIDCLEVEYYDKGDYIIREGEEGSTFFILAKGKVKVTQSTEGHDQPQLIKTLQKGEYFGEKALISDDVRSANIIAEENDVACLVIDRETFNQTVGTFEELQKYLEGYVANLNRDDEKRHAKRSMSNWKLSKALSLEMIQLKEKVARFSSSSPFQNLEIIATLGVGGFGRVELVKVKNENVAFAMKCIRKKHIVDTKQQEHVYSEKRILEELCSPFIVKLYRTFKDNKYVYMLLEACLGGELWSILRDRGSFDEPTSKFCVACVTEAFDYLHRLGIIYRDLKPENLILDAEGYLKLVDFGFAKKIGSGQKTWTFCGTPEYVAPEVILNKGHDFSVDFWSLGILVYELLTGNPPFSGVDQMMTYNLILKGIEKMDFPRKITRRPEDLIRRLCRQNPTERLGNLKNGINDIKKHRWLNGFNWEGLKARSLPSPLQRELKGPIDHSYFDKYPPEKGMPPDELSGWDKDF

MAP4K5 (KHS1) = MAP4K5 (KHS1) (UniProt Q9Y4K4 1-846, limits assumed)
PRKCI (PKC iota) = target: T2, PRKCI (PKC iota) (UniProt P41743 1-596, limits assumed)
T2 sequence (looked up): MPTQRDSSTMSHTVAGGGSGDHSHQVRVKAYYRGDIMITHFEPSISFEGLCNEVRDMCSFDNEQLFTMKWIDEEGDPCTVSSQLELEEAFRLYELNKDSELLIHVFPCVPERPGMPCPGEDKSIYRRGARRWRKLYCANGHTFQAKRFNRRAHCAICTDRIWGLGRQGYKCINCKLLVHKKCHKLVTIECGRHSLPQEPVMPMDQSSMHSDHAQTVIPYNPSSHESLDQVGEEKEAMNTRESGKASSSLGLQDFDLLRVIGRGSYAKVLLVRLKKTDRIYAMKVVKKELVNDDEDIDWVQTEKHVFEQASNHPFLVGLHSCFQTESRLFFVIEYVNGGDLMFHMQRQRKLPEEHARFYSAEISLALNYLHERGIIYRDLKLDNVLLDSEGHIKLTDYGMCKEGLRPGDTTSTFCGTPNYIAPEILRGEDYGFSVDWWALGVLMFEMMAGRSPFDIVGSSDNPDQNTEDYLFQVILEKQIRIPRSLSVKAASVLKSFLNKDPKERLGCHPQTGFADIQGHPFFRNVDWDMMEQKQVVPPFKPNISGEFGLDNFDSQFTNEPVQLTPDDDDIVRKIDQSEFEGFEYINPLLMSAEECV

[3] = target: T3, MAP4K2 (GCK) Mitogen-activated protein kinase kinase kinase kinase 2 (UniProt Q12851 1-820, limits assumed)
T3 sequence (looked up): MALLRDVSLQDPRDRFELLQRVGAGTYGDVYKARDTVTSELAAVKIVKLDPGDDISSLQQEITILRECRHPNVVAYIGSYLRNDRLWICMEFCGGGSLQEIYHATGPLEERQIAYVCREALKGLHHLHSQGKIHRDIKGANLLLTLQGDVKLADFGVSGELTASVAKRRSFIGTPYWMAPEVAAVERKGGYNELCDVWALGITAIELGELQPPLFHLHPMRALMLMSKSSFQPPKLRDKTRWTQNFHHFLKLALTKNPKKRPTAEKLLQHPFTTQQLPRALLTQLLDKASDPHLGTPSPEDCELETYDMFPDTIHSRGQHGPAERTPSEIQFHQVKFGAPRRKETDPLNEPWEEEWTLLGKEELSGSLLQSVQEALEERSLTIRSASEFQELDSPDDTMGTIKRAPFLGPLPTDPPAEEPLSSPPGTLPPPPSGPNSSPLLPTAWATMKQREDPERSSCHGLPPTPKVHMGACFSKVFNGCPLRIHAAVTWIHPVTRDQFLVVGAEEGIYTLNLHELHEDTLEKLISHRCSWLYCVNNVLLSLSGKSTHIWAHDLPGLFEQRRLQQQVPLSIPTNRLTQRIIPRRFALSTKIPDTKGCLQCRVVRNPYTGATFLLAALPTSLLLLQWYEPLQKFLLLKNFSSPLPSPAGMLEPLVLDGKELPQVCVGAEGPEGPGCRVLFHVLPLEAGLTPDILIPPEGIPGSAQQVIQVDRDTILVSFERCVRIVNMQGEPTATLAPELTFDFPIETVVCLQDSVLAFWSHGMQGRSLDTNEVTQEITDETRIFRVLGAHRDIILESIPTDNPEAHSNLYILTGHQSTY

[4] = target: MAP3K8 (COT) Mitogen-activated protein kinase kinase kinase 8 (UniProt P41279 30-397, limits assumed)
PRKCB2 (PKC beta II) = PRKCB2 (PKC beta II) (human (printed as (h)), UniProt P05771-2 1-673)

SGRPPMIVWFNRPFLIAVSHTHGQTILFMAKVINPVGA [D3 peptide]
% Inhibition mean (RPS6KA6 (RSK4)): 87.6%
% Inhibition mean (SRPK2): 79.2%
% Inhibition mean [1]: 94.6%
% Inhibition mean (MST4): 101%
% Inhibition mean (MELK): 85.8%
% Inhibition mean [2]: 83%
% Inhibition mean (CSK): 55.2%
% Inhibition mean (NEK7): 73.8%
% Inhibition mean (PRKG2 (PKG2)): 101%
% Inhibition mean (MAP4K5 (KHS1)): 86.3%
% Inhibition mean (PRKCI (PKC iota)): 48.9%
% Inhibition mean [3]: 98.4%
% Inhibition mean [4]: 98.6%
% Inhibition mean (PRKCB2 (PKC beta II)): 61.6%

From patent US20100184658A1 (published 2010)
